According to patent publication US20150104443A1 (CHONG KUN DANG PHARMACEUTICAL, published 2015):
Numbering of substitutions follows the chain as printed. Each block holds one binder with its values, some of them ahead of it.

Assays:
ErbB2 [1] = molecular target: T1, ErbB2 (UniProt P04626 23-652, limits assumed); experiment: cell-based or functional assay
ErbB2 [2] = molecular target: T1, ErbB2; experiment: BIAcore 2000 SPR, ErbB2 amine-coupled to the chip, antibody injected
ErbB2 [3] = molecular target: T1, ErbB2; experiment: BIAcore 2000 SPR, ratio of KD values

inhibition of NCI-N87 cell proliferation (WST-8, 6 days), IC50 (ErbB2 [1]): 10.3 nM
Kd (ErbB2 [2]): 1.07 nM
koff (ErbB2 [2]): 0.000688 s⁻¹
kon (ErbB2 [2]): 644000 M⁻¹ s⁻¹
B1: humanized antibody A091 (antibody, V domains shown)
VH: EVQLVESGGGLVQPGGSLRLSCAASGFNIKDTYIHWVRQARGKGLEWVARIYPTNGYTRYADSVKGRFTISADTSKNTAYLQMNSLRAEDTAVYYCSRWGGWGFYAFALWGQGTLVTVSS
VL: DIQMTQSPSSLSASVGDRVTITCRASQDVNTAVAWYQQKPGKAPKLLIYTTTWPYSGVPSRFSGSRSGTDFSLTISSLQPEDFATYYCQQYYNTPVTFGQGTKVEIK
notes: Expressed as a whole humanized antibody in CHO-s cells

inhibition of NCI-N87 cell proliferation (WST-8, 6 days), IC50 (ErbB2 [1]): 4.3 nM
Kd (ErbB2 [2]): 0.533 nM
koff (ErbB2 [2]): 0.000278 s⁻¹
kon (ErbB2 [2]): 522000 M⁻¹ s⁻¹
B2: humanized antibody A058 (antibody, V domains shown)
VH: B1 VH with R41P
VL: B1 VL with T50S, T51A, T52S, W53F, P54L, S72T, Y91H, N93Q, V96A, T97S
notes: as for B1

fold increase of affinity against the parent antibody 4D5 (ErbB2 [3]): ~2 fold
Kd (ErbB2 [2]): 0.297 nM
koff (ErbB2 [2]): 0.00012 s⁻¹
kon (ErbB2 [2]): 404000 M⁻¹ s⁻¹
B3: humanized antibody AH16 (antibody, V domains shown)
VH: B1 VH with R41P, G100N, G101A, W102K, A106S, A108V, L109H
VL: not shown
notes: as for B1
